Experimental data taken from patent US20230042176.

Columns and labels:
[1] = molecular target: Flag-tagged BK (Flag-BK), overexpressed in HEK293 cells
[2] = molecular target: BK, endogenous, in primary mouse cortical neurons, Q08460
Chain of BK, endogenous, in primary mouse cortical neurons, Q08460 (Q08460 whole entry): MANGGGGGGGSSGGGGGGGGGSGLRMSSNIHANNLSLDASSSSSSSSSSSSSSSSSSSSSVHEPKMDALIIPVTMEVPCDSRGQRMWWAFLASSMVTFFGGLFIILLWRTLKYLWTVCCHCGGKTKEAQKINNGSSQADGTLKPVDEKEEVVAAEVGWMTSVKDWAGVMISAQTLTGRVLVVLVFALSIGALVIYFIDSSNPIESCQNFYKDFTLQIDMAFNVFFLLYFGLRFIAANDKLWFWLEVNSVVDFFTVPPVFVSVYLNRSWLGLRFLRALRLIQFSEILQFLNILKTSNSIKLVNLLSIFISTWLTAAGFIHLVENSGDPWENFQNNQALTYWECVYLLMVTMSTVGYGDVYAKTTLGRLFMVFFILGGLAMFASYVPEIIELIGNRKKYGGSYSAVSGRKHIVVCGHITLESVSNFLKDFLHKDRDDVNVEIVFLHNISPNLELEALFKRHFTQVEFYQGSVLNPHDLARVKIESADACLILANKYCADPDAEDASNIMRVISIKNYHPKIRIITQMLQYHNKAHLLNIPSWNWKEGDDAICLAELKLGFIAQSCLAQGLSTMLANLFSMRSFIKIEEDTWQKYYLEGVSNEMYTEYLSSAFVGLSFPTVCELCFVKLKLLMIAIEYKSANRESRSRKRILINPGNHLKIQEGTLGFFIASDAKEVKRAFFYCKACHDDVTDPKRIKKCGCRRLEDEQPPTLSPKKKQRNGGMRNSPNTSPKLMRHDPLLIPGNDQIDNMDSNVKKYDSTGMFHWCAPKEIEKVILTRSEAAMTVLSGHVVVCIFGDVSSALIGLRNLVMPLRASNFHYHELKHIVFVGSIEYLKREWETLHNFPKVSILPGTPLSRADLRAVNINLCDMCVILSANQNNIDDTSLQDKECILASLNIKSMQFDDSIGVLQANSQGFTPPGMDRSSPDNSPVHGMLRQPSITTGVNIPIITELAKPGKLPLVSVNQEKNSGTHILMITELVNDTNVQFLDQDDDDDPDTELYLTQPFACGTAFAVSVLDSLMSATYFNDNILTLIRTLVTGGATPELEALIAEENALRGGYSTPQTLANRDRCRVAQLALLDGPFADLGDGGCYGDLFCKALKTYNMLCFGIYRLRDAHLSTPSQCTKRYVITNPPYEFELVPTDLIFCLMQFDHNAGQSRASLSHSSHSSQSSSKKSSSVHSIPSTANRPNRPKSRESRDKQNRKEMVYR

| Protein | in vitro ubiquitination assay (E1 Ube1, E2 UbcH5c, HA-Ub) [1] | endogenous BK ubiquitination (BK IP, ubiquitin antibody blot, primary mouse cortical neurons) [2] |
| --- | --- | --- |
| UBE3A, recombinant, as used in the in vitro ubiquitination assay (ubiquitination kit K-230, Boston Biochem) (protein) MEKLHQCYWKSGEPQSDDIEASRMKRAAAKHLIERYYHQLTEGCGNEACTNEFCASCPTFLRMDNNAAAIKALELYKINAKLCDPHPSKKGASSAYLENSKGAPNNSCSEIKMNKKGARIDFKDVTYLTEEKVYEILELCREREDYSPLIRVIGRVFSSAEALVQSFRKVKQHTKEELKSLQAKDEDKDEDEKEKAACSAAAMEEDSEASSSRIGDSSQGDNNLQKLGPDDVSVDIDAIRRVYTRLLSNEKIETAFLNALVYLSPNVECDLTYHNVYSRDPNYLNLFIIVMENRNLHSPEYLEMALPLFCKAMSKLPLAAQGKLIRLWSKYNADQIRRMMETFQQLITYKVISNEFNSRNLVNDDDAIVAASKCLKMVYYANVVGGEVDTNHNEEDDEEPIPESSELTLQELLGEERRNKKGPRVDPLETELGVKTLDCRKPLIPFEEFINEPLNEVLEMDKDYTFFKVETENKFSFMTCPFILNAVTKNLGLYYDNRIRMYSERRITVLYSLVQGQQLNPYLRLKVRRDHIIDDALVRLEMIAMENPADLKKQLYVEFEGEQGVDEGGVSKEFFQLVVEEIFNPDIGMFTYDESTKLFWFNPSSFETEGQFTLIGIVLGLAIYNNCILDVHFPMVVYRKLMGKKGTFRDLGDSHPVLYQSLKDLLEYEGNVEDDMMITFQISQTDLFGNPMMYDLKENGDKIPITNENRKEFVNLYSDYILNKSVEKQFKAFRRGFHMVTNESPLKYLFRPEEIELLICGSRNLDFQALEETTEYDGGYTRDSVLIREFWEIVHSFTDEQKRLFLQFTTGTDRAPVGGLGKLKMIIAKNGPDTERLPTSHTCFNVLLLPEYSSKEKLKERLLKAITYAKGFGML | BK ubiquitination by UBE3A was further confirmed by an in vitro ubiquitination assay using recombinant proteins (FIG. 11C) |  |
| Ube3a, endogenous, in primary mouse cortical neurons (WT against Ube3a m-/p+ mice) (protein) MATACKRSPGESQSEDIEASRMKRAAAKHLIERYYHQLTEGCGNEACTNEFCASCPTFLRMDNNAAAIKALELYKINAKLCDPHPSKKGASSAYLENSKGASNNSEIKMNKKEGKDFKDVIYLTEEKVYEIYEFCRESEDYSPLIRVIGRIFSSAEALVLSFRKVKQHTKEELKSLQEKDEDKDEDEKEKAACSAAAMEEDSEASSSRMGDSSQGDNNVQKLGPDDVTVDIDAIRRVYSSLLANEKLETAFLNALVYLSPNVECDLTYHNVYTRDPNYLNLFIIVMENSNLHSPEYLEMALPLFCKAMCKLPLEAQGKLIRLWSKYSADQIRRMMETFQQLITYKVISNEFNSRNLVNDDDAIVAASKCLKMVYYANVVGGDVDTNHNEEDDEEPIPESSELTLQELLGDERRNKKGPRVDPLETELGVKTLDCRKPLISFEEFINEPLNDVLEMDKDYTFFKVETENKFSFMTCPFILNAVTKNLGLYYDNRIRMYSERRITVLYSLVQGQQLNPYLRLKVRRDHIIDDALVRLEMIAMENPADLKKQLYVEFEGEQGVDEGGVSKEFFQLVVEEIFNPDIGMFTYDEATKLFWFNPSSFETEGQFTLIGIVLGLAIYNNCILDVHFPMVVYRKLMGKKGTFRDLGDSHPVLYQSLKDLLEYEGSVEDDMMITFQISQTDLFGNPMMYDLKENGDKIPITNENRKEFVNLYSDYILNKSVEKQFKAFRRGFHMVTNESPLKYLFRPEEIELLICGSRNLDFQALEETTEYDGGYTRESVVIREFWEIVHSFTDEQKRLFLQFTTGTDRAPVGGLGKLKMIIAKNGPDTERLPTSHTCFNVLLLPEYSSKEKLKERLLKAITYAKGFGML |  | BK ubiquitination by UBE3A was further confirmed ... by assessing endogenous BK ubiquitination using mouse cortical neurons derived from either WT or Ube3a^m-/p+ mice (FIGS. 11D-11E) |
